Test results published in PMC8463545, “The predatory soil bacterium Lysobacter reprograms quorum sensing system to regulate antifungal antibiotic production in a cyclic-di-GMP-independent manner” (Communications Biology, 2021).

Assays:
Details in all cases: both partners purified
RpfG-MBP = biological target: T1, RpfG-MBP (Lysobacter enzymogenes); assay: SPR; RpfG-MBP on the sensor, HtsH cytoplasmic fragments bound to it; conditions not given
T1 chain: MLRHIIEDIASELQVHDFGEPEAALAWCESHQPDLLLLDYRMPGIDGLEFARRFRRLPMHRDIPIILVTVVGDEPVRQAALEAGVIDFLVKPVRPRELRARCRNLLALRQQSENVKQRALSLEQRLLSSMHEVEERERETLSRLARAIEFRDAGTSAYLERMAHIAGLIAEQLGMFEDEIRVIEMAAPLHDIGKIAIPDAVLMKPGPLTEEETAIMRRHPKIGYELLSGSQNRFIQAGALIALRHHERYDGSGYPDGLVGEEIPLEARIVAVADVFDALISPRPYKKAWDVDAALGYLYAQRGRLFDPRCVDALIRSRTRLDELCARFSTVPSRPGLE

HtsH3C-Myc-His = HtsH3C-Myc-His (Lysobacter enzymogenes); assay: SPR; HtsH cytoplasmic fragments against each other (Supplementary Fig. 5); who was immobilised and conditions not told
HtsH2C-HA-His = HtsH2C-HA-His (Lysobacter enzymogenes); assay: as above

B1: HtsH2C-HA-His (domain or fragment)
chain: not shown
modifications: Phosphorylated as purified (CIAP-sensitive). Primers give (M)AKTRFL... to ...DAADAP (C-terminus). The candidate lists no features, so the start is estimated from the paralogues' fragment lengths and …
RpfG-MBP
  Kd: 300 nM
HtsH3C-Myc-His
  Kd: 178 nM

B2: HtsH3C-Myc-His (domain or fragment)
chain: not shown
modifications: Phosphorylated as purified (CIAP-sensitive). Primers give (M)AKTRFL... to ...ARRGEG (C-terminus). Positions are inferred from the candidate's His-kinase domain start. Assignment of this entry to …
RpfG-MBP
  Kd: 168 nM

B3: HtsH1C-Flag-His (domain or fragment)
chain: not shown
modifications: Phosphorylated as purified (CIAP-sensitive). Limits from the expression primers: (M)AKTRFL... to ...LFEREA, just before the His-kinase domain to the C-terminus. The start codon Met and Flag/His tags …
RpfG-MBP
  Kd: 66.8 nM
HtsH2C-HA-His
  Kd: 96.2 nM
HtsH3C-Myc-His
  Kd: 160 nM
